Reference: patent US20210024654A1 (AMPHIVENA THERAPEUTICS, published 2021)

What follows are binders tested against cynomolgus CD33 (cynomolgus) (assay: flow cytometry KDs on CHO cells, cyno CD33 / human CD33).

KD ratio CynoCD33/huCD33	Binder
1.9	CD33/CD3 tandem diabody 23 (bispecific antibody) DIQMTQSPSSLSASVGDRVTITCRSSTGAVTTSNYANWVQQKPGKAPKGLIGGTNKRAPGVPSRFSGSLIGTDFTLTISSLQPEDFATYYCALWYSNLWVFGQGTKVEIKGGSGGSQVQLVQSGAEVKKPGSSVKVSCKASGGTFSSYGISWVRQAPGQGLEWMGGIIPIFGSAHYAQKFQGRVTITADESTSTAYMELSSLRSEDTAVYYCAREYYYDSSEWAFDIWGQGTLVTVSSGGSGQSVLTQPPSASGTPGQRVTISCSGSSSNIGSNTVKWYQQLPGTAPKLLIYSNNQRSSGVPDRFSGSKSGSSASLAISGLQSEDEADYYCAAWDDSLNGYVFGGGTKLTVLGGSGGSEVQLVESGGGLVQPGGSLRLSCAASGFTFSTYAMNWVRQAPGKGLEWVGRIRSKYNNYATYYADSVKDRFTISRDDSKNSLYLQMNSLKTEDTAVYYCARHGNFGNSYVSWFAYWGQGTLVTVSS
0.6	CD33/CD3 tandem diabody 22 (bispecific antibody) DIQMTQSPSSLSASVGDRVTITCRSSTGAVTTSNYANWVQQKPGKAPKALIGGTNKRAPGVPSRFSGSLIGDKATLTISSLQPEDFATYYCALWYSNLWVFGQGTKVEIKGGSGGSQVQLVQSGAEVKKPGSSVKVSCKASGGTFSSYGISWVRQAPGQGLEWMGGIIPIFGSAHYAQKFQGRVTITADESTSTAYMELSSLRSEDTAVYYCAREYYYDSSEWAFDIWGQGTLVTVSSGGSGQSVLTQPPSASGTPGQRVTISCSGSSSNIGSNTVKWYQQLPGTAPKLLIYSNNQRSSGVPDRFSGSKSGSSASLAISGLQSEDEADYYCAAWDDSLNGYVFGGGTKLTVLGGSGGSEVQLVESGGGLVQPGGSLRLSCAASGFTFSTYAMNWVRQAPGKGLEWVGRIRSKYNNYATYYADSVKDRFTISRDDSKNSLYLQMNSLKTEDTAVYYCARHGNFGNSYVSYFAYWGQGTLVTVSSAAAGSHHHHHH
0.8	CD33/CD3 tandem diabody 05 (bispecific antibody) DIQMTQSPSSLSASVGDRVTITCRSSTGAVTTSNYANWVQQKPGKAPKGLIGGTNKRAPGVPARFSGSGSGTDFTLTISSLQPEDFATYYCALWYSNLWVFGQGTKVEIKGGSGGSQVQLVQSGAEVKKPGASVKVSCKASGYTFTSYDINWVRQAPGQGLEWMGWMNPNSGNTGFAQKFQGRVTMTRDTSTSTVYMELSSLRSEDTAVYYCARDRANTDYSFGMDVWGQGTLVTVSSGGSGGQSVLTQPPSASGTPGQRVTISCSGSRSNIGSNTVNWYQQLPGTAPKLLIYGNNQRPSGVPDRFSGSKSGTSASLAISGLQSEDEADYYCATWDDSLIGWVFGGGTKLTVLGGSGGSEVQLVESGGGLVQPGGSLRLSCAASGFTFSTYAMNWVRQAPGKGLEWVGRIRSKYNNYATYYADSVKDRFTISRDDSKNSLYLQMNSLKTEDTAVYYCARHGNFGNSYVSWFAYWGQGTLVTVSSAAAGSHHHHHH
0.8	CD33/CD3 tandem diabody 06 (bispecific antibody) DIQMTQSPSSLSASVGDRVTITCRSSTGAVTTSNYANWVQQKPGKAPKGLIGGTNKRAPGVPARFSGSGSGTDFTLTISSLQPEDFATYYCALWYSNLWVFGQGTKVEIKGGSGGSQVQLVQSGAEVKKPGASVKVSCKASGYTFTSYDINWVRQAPGQGLEWMGWMNPNSGNTGFAQKFQGRVTMTRDTSTSTVYMELSSLRSEDTAVYYCARDRANTDYSLGMDVWGQGTLVTVSSGGSGGQSVLTQPPSASGTPGQRVTISCSGSRSNIGSNTVNWYQQLPGTAPKLLIYGNNQRPSGVPDRFSGSKSGTSASLAISGLQSEDEADYYCATWDDSLIGWVFGGGTKLTVLGGSGGSEVQLVESGGGLVQPGGSLRLSCAASGFTFSTYAMNWVRQAPGKGLEWVGRIRSKYNNYATYYADSVKDRFTISRDDSKNSLYLQMNSLKTEDTAVYYCARHGNFGNSYVSWFAYWGQGTLVTVSSAAAGSHHHHHH
1.8	CD33/CD3 tandem diabody 24 (bispecific antibody) DIQMTQSPSSLSASVGDRVTITCRSSTGAVTTSNYANWVQQKPGKAPKALIGGTNKRAPGVPSRFSGSLIGDKATLTISSLQPEDFATYYCALWYSNLWVFGQGTKVEIKGGSGGSQVQLVQSGAEVKKPGSSVKVSCKASGGTFDSYAISWVRQAPGQGLEWMGGIIPIFGSAHYSQKFQGRVTITADESTSTAYMELSSLRSEDTAVYYCAREYYYDSSEWAFDIWGQGTLVTVSSGGSGQSVLTQPPSASGTPGQRVTISCSGSSSNIGDNVVNWYQQLPGTAPKLLIYSTNKRPSGVPDRFSGSKSGSSASLAISGLQSEDEADYYCAAWDDSLSAYVFGGGTKLTVLGGSGGSEVQLVESGGGLVQPGGSLRLSCAASGFTFSTYAMNWVRQAPGKGLEWVGRIRSKYNNYATYYADSVKDRFTISRDDSKNSLYLQMNSLKTEDTAVYYCARHGNFGNSYVSYFAYWGQGTLVTVSSAAAGSHHHHHH
1.1	CD33/CD3 tandem diabody 02 (bispecific antibody) DIQMTQSPSSLSASVGDRVTITCRSSTGAVTTSNYANWVQQKPGKAPKGLIGGTNKRAPGVPARFSGSGSGTDFTLTISSLQPEDFATYYCALWYSNLWVFGQGTKVEIKGGSGGSQVQLVQSGAEVKKPGASVKVSCKASGYTFTSYDINWVRQAPGQGLEWMGWMNPNSGNTGFAQKFQGRVTMTRDTSTSTVYMELSSLRSEDTAVYYCARDRAVTDYYYGMDVWGQGTLVTVSSGGSGQSVLTQPPSASGTPGQRVTISCSGSRSNIGSNTVNWYQQLPGTAPKLLIYGNNQRPSGVPDRFSGSKSGTSASLAISGLQSEDEADYYCATWDDSLIGWVFGGGTKLTVLGGSGGSEVQLVESGGGLVQPGGSLRLSCAASGFTFSTYAMNWVRQAPGKGLEWVGRIRSKYNNYATYYADSVKDRFTISRDDSKNSLYLQMNSLKTEDTAVYYCARHGNFGNSYVSWFAYWGQGTLVTVSSAAAGSHHHHHH
0.6	CD33/CD3 tandem diabody 03 (bispecific antibody) DIQMTQSPSSLSASVGDRVTITCRSSTGAVTTSNYANWVQQKPGKAPKGLIGGTNKRAPGVPARFSGSGSGTDFTLTISSLQPEDFATYYCALWYSNLWVFGQGTKVEIKGGSGGSQVQLVQSGAEVKKPGASVKVSCKASGYTFTSYDINWVRQAPGQGLEWMGWMNPNSGNTGFAQKFQGRVTMTRDTSTSTVYMELSSLRSEDTAVYYCARDRANTDYSFGMDVWGQGTLVTVSSGGSGQSVLTQPPSASGTPGQRVTISCSGSRSNIGSNTVNWYQQLPGTAPKLLIYGNNQRPSGVPDRFSGSKSGTSASLAISGLQSEDEADYYCATWDDSLIGWVFGGGTKLTVLGGSGGSEVQLVESGGGLVQPGGSLRLSCAASGFTFSTYAMNWVRQAPGKGLEWVGRIRSKYNNYATYYADSVKDRFTISRDDSKNSLYLQMNSLKTEDTAVYYCARHGNFGNSYVSWFAYWGQGTLVTVSSAAAGSHHHHHH
1.1	CD33/CD3 tandem diabody 04 (bispecific antibody) DIQMTQSPSSLSASVGDRVTITCRSSTGAVTTSNYANWVQQKPGKAPKGLIGGTNKRAPGVPARFSGSGSGTDFTLTISSLQPEDFATYYCALWYSNLWVFGQGTKVEIKGGSGGSQVQLVQSGAEVKKPGASVKVSCKASGYTFTSYDINWVRQAPGQGLEWMGWMNPNSGNTGFAQKFQGRVTMTRDTSTSTVYMELSSLRSEDTAVYYCARDRANTDYSLGMDVWGQGTLVTVSSGGSGQSVLTQPPSASGTPGQRVTISCSGSRSNIGSNTVNWYQQLPGTAPKLLIYGNNQRPSGVPDRFSGSKSGTSASLAISGLQSEDEADYYCATWDDSLIGWVFGGGTKLTVLGGSGGSEVQLVESGGGLVQPGGSLRLSCAASGFTFSTYAMNWVRQAPGKGLEWVGRIRSKYNNYATYYADSVKDRFTISRDDSKNSLYLQMNSLKTEDTAVYYCARHGNFGNSYVSWFAYWGQGTLVTVSSAAAGSHHHHHH
